Results on eight molecules are retold here after paper PMC10965115.

Holding throughout (assay): BLI
In general terms: In BLI a coated tip is dipped into the sample, and binding shifts an interference pattern.

The target in test [1] is IgG1 RUBY v9 #15 (human).
In test [2] the target is IgG1 mAb (human).
Test [3] concerns the target IgG1 LALA RUBY #10 (human).
Test [4] concerns the target IgG1 LALA mAb (human).
Test [5] deals with IgG2 RUBY v9 #16 (human).
Test [6] deals with IgG2 mAb (human).
In test [7] the target is IgG1 LALA RUBY v9 #2 (human).
Test [8] has as its target IgG1 RUBY v9 #15 (human). This is another data set of the same source.
The target in test [9] is IgG1 mAb (human). The source holds these as a separate data set.
Test [10] deals with IgG2 RUBY v9 #16 (human). This is another data set of the same source.
Test [11] has as its target IgG2 mAb (human). The source holds these as a separate data set.

What is called Kd is the concentration at which binding is half-saturated. Lower therefore signals tighter binding. What is called koff is the first-order rate constant of dissociation. A word on the kon: it is the rate constant with which the complex forms.

Like-named read-outs stand apart in the source and are kept apart here.

In the case of “hFcγRIIIa 176 V (from UniProt P08637) (receptor)”, in test [1], the Kd was found to be 30 nM, the koff is 0.03 s⁻¹ and the kon came to 1e+06 M⁻¹ s⁻¹. In test [2], the Kd amounted to 50 nM, the koff was 0.03 s⁻¹ and the kon worked out at 600000 M⁻¹ s⁻¹.

For the molecule “hFcγRIIa (from UniProt P12318) (receptor)”, in test [2], the Kd was found to be 300 nM.

As for “recombinant human FcRn (from UniProt P55899) (receptor)”, the Kd in test [3] was found to be 600 nM; in test [4], 500 nM; in test [1], 600 nM; in test [2] it was 500 nM; in [5] it was 1000 nM; in [6], 600 nM. Moreover, the koff is 0.08 s⁻¹ in test [3]; 0.1 s⁻¹ in test [4]; 0.08 s⁻¹ in test [1]; 0.05 s⁻¹ in [2]; 0.2 s⁻¹ in test [5]; 0.1 s⁻¹ in [6]. The kon in test [3] came out at 100000 M⁻¹ s⁻¹; in test [4], 200000 M⁻¹ s⁻¹; in [1], 100000 M⁻¹ s⁻¹; in test [2] it was 100000 M⁻¹ s⁻¹; in test [5], 200000 M⁻¹ s⁻¹; in [6], 200000 M⁻¹ s⁻¹.

The molecule “mFcγRIV (from UniProt A0A0B4J1G0) (receptor)” had a Kd in [1] of 40 nM. Moreover, in [2], the dissociation constant Kd was determined as 50 nM and the kon was determined as 400000 M⁻¹ s⁻¹.

Take “recombinant mouse FcRn (from UniProt Q61559) (receptor)”: in test [3], the equilibrium dissociation constant (Kd) worked out at 70 nM, the koff came out at 0.007 s⁻¹ and the kon stood at 100000 M⁻¹ s⁻¹.

In the case of hFcγRI (from UniProt P12314) (receptor), the Kd in test [7] is 40 nM.

B1: mFcγRIII (receptor)
chain: ALPKAVVKLDPPWIQVLKEDMVTLMCEGTHNPGNSSTQWFHNGRSIRSQVQASYTFKATVNDSGEYRCQMEQTRLSDPVDLGVISDWLLLQTPQRVFLEGETITLRCHSWRNKLLNRISFFHNEKSVRYHHYKSNFSIPKANHSHSGDYYCKGSLGSTQHQSKPVTITVQDPATTSSISLVWYHT
As to B1, the Kd in test [8] was determined as 10 nM; in test [9] it was 20 nM; in test [10], 10 nM; in test [11], 10 nM. The koff in test [8] was found to be 0.01 s⁻¹; in test [9], 0.006 s⁻¹; in [10], 0.006 s⁻¹; in test [11], 0.008 s⁻¹. The kon in test [8] was found to be 700000 M⁻¹ s⁻¹; in test [9], 400000 M⁻¹ s⁻¹; in [10] it was 600000 M⁻¹ s⁻¹; in test [11] it was 700000 M⁻¹ s⁻¹.

B2: mFcγRI (receptor)
chain: EVVNATKAVITLQPPWVSIFQKENVTLWCEGPHLPGDSSTQWFINGTAVQISTPSYSIPEASFQDSGEYRCQIGSSMPSDPVQLQIHNDWLLLQASRRVLTEGEPLALRCHGWKNKLVYNVVFYRNGKSFQFSSDSEVAILKTNLSHSGIYHCSGTGRHRYTSAGVSITVKELFTTPVLRASVSSPFPEGSLVTLNCETNLLLQRPGLQLHFSFYVGSKILEYRNTSSEYHIARAEREDAGFYWCEVATEDSSVLKRSPELELQVLGPQSSAP
In test [8], B2 registered a Kd of 40 nM, a koff of 0.03 s⁻¹ and a kon of 700000 M⁻¹ s⁻¹. In test [9], the Kd is 40 nM, the koff was determined as 0.02 s⁻¹ and the kon amounted to 600000 M⁻¹ s⁻¹.
